The numbers were not newly measured in paper PMC7545370, which cites them from elsewhere.

For one series, the target named is Ubiquitin (Homo sapiens) (UniProt P0CG48).
A further series concerns the target KAP1 RBCC (Homo sapiens) (UniProt Q13263).

Sequence of SMARCAD1 CUE1 (Q9H4L7 154-202): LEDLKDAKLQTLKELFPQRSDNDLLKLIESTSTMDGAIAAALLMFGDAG
Sequence of KAP1 RBCC (Homo sapiens) (Q13263 62-379): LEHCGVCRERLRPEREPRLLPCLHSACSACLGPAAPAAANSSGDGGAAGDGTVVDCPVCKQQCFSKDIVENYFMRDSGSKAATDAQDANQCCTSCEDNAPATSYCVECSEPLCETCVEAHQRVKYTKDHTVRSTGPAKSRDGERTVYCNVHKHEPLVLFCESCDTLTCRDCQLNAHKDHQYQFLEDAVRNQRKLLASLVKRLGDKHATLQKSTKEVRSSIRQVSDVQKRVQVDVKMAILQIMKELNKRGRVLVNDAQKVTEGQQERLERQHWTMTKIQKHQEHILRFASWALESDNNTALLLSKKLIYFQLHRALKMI

Take SMARCAD1 CUE1 (from UniProt Q9H4L7): the Kd in the series with Ubiquitin (Homo sapiens) was 952 µM; in the series with KAP1 RBCC (Homo sapiens), 0.158 µM.

As a reminder, the Kd is a measure of binding affinity in units of concentration.
